Measurements taken from the supplement of paper PMC7125110.
± gives the standard error. For some assays here: Fewer inactive variants are shown than the library holds.

B1: glmS ribozyme (parent)
chain: AUAAAAGCGCCAGAACUACAGAAAUGUAGUUGACGAGGAGGAGGUUUAUCGAAUUUUCGGCGGAUGCCUCCAAA

Tests used:
Conditions in all cases: with glucosamine-6-phosphate
[1] = variants of: B1; assay: kcat; higher = faster cleavage; RNA array
Outline: (§1)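 Tracking of barcoded ribozyme variants used a hybridised Cy3 probe at 37 °C, after in situ transcription by E. coli RNA polymerase on sequenced MiSeq chips. The flowed solution held 40 μM to 10 mM glucosamine-6-phosphate in HEPES/KCl/Mg(OAc)2 buffer, and imaging ran over ~14 h. kobs was taken from exponential decay fits of normalised per-tile medians, and kcat and KM from weighted Michaelis–Menten fits.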

[2] = variants of: B1; assay: KM; higher = weaker cofactor use; RNA array
Outline: as §1

[3] = variants of: B1; assay: self-cleavage kobs at 40 uM GlcN6P; higher = faster cleavage; RNA array
Outline: as §1

[4] = variants of: B1; assay: self-cleavage kobs at 160 uM GlcN6P; higher = faster cleavage; RNA array
Outline: as §1

[5] = variants of: B1; assay: self-cleavage kobs at 640 uM GlcN6P; higher = faster cleavage; RNA array
Outline: as §1

[6] = variants of: B1; assay: self-cleavage kobs at 10000 uM GlcN6P; higher = faster cleavage; RNA array
Outline: as §1

[7] = variants of: B1; assay: self-cleavage kobs at 2500 uM GlcN6P; higher = faster cleavage; RNA array
Outline: as §1

Variant | kcat [1] [s⁻¹] | KM [2] [µM] | self-cleavage kobs at 40 uM GlcN6P [3] [s⁻¹] | self-cleavage kobs at 160 uM GlcN6P [4] [s⁻¹] | self-cleavage kobs at 640 uM GlcN6P [5] [s⁻¹] | self-cleavage kobs at 10000 uM GlcN6P [6] [s⁻¹] | self-cleavage kobs at 2500 uM GlcN6P [7] [s⁻¹]
A42G U46A | 0.00476 ± 0.00084 | 1200 ± 320 | 0.000149 ± 2.5e-05 | 0.000896 ± 0.00031 | 0.00178 ± 0.00057 | 0.00455 ± 0.00072 | 
U55G G66A | 0.0134 ± 0.004 | 1790 ± 770 | 0.000461 ± 7.7e-05 | 0.000877 ± 0.00021 | 0.00303 ± 0.00072 | 0.0124 ± 0.002 | 0.00661 ± 0.0022
G13C A14U | 0.000311 ± 2.1e-05 | 2100 ± 320 |  |  | 6.86e-05 ± 1.5e-05 | 0.00025 ± 3.1e-05 | 0.000186 ± 3e-05
C11U A15C | 0.000738 ± 0.00012 | 2490 ± 850 |  | 2.57e-05 ± 1.1e-05 | 0.000194 ± 2.9e-05 | 0.000585 ± 4.9e-05 | 0.000368 ± 6.1e-05
A6C A39G | 6.38e-05 ± 7.8e-07 | 439 ± 33 |  |  |  | 6.11e-05 ± 1.4e-05 | 5.42e-05 ± 1.9e-05
C16A C68U | 9.12e-05 ± 2.9e-06 | 878 ± 110 |  |  | 3.93e-05 ± 7.5e-06 | 8.53e-05 ± 7.2e-06 | 6.55e-05 ± 6.5e-06
C16G U30G | 0.000352 ± 3e-05 | 4110 ± 700 |  |  | 4.35e-05 ± 1.3e-05 | 0.000246 ± 3.2e-05 | 0.000146 ± 2.8e-05
